# According to publication PMC6191154:
# Molecular target: labelled Vip3Aa protoxin (MST) (Bacillus thuringiensis (strain Bt9816C))
# Assay: MST; 10 nM labelled Vip3Aa kept constant, Sf-SR-C protein fragments titrated 0.3 nM to 10 μM, 20 min at RT; 25 mM Hepes pH 7.5, 150 mM NaCl, 0.05% Tween-20; 25 °C; fitted to the Hill equation; three independent experiments
row,Substance,Kd
1,extracellular sequence of Sf-SR-C (aa 20-558) with a glutathione-S-transferase tag (GST-SR-C-N) (domain or fragment),190 nM
2,Sf-CCP (CCP domain of Sf-SR-C (aa 20-80) with a His-tag) (domain or fragment),2190 nM
3,"GST-SR-F-2 (Sf-SR-C aa 139-320, the MAM domain) (domain or fragment)",463 nM
